These are literature values, as cited in publication PMC3277744.

A word on the Kd: it is the equilibrium constant for the complex coming apart.

This data set has as its target Bcl-XL (Homo sapiens) (UniProt Q07817).

Sequence of Bcl-XL (Homo sapiens) (Q07817 whole entry): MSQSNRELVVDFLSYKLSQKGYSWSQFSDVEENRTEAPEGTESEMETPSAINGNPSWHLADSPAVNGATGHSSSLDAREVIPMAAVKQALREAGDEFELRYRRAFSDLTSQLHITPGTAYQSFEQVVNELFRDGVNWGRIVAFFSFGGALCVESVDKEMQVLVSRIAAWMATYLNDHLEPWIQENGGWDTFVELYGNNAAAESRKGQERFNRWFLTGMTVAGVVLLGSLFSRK

On to p53 (from UniProt P04637), for which the Kd is 164 nM.
